Data from paper PMC11191652 (Biomaterials science, 2024).

Biological target: p300 (UniProt Q09472 1-2414)
Assay: ELISA

Sequence of p300 (Q09472 whole entry): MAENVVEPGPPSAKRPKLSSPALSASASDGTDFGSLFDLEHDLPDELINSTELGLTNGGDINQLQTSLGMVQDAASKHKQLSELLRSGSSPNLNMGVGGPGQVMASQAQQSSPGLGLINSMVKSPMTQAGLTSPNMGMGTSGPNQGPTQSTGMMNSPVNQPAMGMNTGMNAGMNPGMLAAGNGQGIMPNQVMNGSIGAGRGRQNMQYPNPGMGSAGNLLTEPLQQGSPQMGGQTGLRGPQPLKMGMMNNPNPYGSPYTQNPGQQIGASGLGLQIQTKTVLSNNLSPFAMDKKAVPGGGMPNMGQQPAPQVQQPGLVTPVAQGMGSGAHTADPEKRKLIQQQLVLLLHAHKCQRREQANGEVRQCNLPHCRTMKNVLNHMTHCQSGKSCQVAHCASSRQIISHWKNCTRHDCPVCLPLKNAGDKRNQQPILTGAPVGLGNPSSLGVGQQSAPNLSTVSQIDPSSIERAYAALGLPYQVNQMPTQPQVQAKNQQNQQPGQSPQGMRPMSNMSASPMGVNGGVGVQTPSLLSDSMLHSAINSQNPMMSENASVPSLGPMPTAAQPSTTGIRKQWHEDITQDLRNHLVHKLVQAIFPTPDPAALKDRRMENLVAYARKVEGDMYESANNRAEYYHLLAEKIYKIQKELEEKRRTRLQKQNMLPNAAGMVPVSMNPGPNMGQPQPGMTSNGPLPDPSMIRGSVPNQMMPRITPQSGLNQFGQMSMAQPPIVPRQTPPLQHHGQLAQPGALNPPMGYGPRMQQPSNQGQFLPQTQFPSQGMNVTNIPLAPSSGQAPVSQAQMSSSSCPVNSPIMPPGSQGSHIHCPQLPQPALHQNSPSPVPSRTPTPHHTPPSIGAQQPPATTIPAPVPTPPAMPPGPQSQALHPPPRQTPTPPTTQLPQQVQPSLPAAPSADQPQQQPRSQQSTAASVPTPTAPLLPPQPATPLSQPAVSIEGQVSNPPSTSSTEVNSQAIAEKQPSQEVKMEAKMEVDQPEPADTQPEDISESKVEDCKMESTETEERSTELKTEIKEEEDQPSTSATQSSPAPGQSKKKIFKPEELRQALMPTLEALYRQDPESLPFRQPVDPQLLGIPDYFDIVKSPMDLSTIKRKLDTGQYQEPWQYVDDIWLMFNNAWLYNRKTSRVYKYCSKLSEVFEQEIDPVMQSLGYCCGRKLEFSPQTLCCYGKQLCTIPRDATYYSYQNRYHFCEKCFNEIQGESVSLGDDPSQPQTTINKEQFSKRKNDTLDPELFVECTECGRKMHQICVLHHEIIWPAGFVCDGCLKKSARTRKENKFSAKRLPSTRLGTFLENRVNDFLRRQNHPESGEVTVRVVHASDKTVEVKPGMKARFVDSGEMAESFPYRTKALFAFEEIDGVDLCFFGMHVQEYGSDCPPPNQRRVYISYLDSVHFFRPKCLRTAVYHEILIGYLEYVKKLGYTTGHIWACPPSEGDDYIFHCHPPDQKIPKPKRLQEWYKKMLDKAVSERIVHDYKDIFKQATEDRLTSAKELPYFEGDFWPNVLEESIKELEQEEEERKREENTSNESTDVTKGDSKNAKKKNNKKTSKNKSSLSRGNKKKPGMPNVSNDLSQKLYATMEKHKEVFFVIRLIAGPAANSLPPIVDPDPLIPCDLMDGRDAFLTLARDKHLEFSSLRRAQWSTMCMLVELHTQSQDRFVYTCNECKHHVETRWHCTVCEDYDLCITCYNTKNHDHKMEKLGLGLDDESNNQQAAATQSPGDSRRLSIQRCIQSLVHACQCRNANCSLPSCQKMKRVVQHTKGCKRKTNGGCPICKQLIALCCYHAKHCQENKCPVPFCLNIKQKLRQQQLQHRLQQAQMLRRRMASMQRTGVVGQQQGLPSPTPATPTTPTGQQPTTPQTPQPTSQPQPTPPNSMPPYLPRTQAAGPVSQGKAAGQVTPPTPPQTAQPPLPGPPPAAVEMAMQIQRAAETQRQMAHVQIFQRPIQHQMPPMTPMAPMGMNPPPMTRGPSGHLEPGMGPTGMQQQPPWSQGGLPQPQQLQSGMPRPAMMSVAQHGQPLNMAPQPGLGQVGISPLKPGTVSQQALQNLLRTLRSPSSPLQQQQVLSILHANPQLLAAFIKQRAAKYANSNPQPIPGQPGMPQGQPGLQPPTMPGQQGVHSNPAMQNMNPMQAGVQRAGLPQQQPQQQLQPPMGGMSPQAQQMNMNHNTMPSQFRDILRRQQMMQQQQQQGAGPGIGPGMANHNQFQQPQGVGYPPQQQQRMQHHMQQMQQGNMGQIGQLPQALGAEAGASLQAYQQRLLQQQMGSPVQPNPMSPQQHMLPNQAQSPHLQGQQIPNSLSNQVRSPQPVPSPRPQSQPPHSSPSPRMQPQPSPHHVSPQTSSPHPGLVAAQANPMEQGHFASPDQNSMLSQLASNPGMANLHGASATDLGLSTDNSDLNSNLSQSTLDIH

- Kd: 14.5 nM
Binder: SMDESGLPQLTSYDCEVNAPIQGSRNLLQGEELLRALDQVN (domain or fragment, UniProt Q16665 786-826, looked up) [HIF1α C-terminal transactivation domain, HIF1α_(786–826)]
